Reference: patent US12247072
Like-named read-outs stand apart in the source and are kept apart here.

Assays:
[1] = target: keyhole limpet hemocyanin; assay: polyreactivity ELISA
[2] = target: keyhole limpet hemocyanin; assay: polyreactivity ELISA; remark: listed apart in the source

Bococizumab (antibody)
Binding to KLH (A450 normalised to buffer control) [1]: 47.1 | Binding to KLH (A450 normalised to buffer control) [2]: 24.4
